From the supplement of paper PMC6757056
± gives the standard deviation of the averaged measurements.

B1: library; a variant is named by its letters at N, in order (parent)
chain: GCUGUCACCGGUGCUUGGUACGUUAUAUUCAGCCGGUCUGAUGAGUCUNNNNNNAGACGAAACAGC

Key:
(6R,S)-folinic acid [1] = variants of: B1; test: normalized RNA/DNA level without ligand (relative to sTRSVctl = 100) (log10 (% of sTRSVctl)); HEK293T overexpressing SLC46A1; higher = less ribozyme self-cleavage, higher mRNA level; details: without (6R,S)-folinic acid; ligand present: no
Method in brief: (§1)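 HEK293T cells received ligand, where used, 1 h before being transfected with 4 µg per 6-well well of library plasmids encoding reporter-linked ribozyme switches. After 72 h, RNA was extracted with EDTA and sequenced. RNA level was derived from RNA reads per DNA read, normalized to a spiked-in non-cleaving sequence or the top sequences, then scaled and log-transformed. Values were ×100 then log10, the top set was 25 sequences, and the minimum was 100 DNA reads.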

(6R,S)-folinic acid [2] = variants of: B1; test: normalized RNA/DNA level with ligand (relative to sTRSVctl = 100) (log10 (% of sTRSVctl)); HEK293T overexpressing SLC46A1; ligand concentration (+) RNA-Seq: 6 mM; higher = less ribozyme self-cleavage, higher mRNA level; details: with (6R,S)-folinic acid; ligand present: yes
Method in brief: as §1

Variant	normalized RNA/DNA level without ligand (log10) ((6R,S)-folinic acid [1])	normalized RNA/DNA level with ligand (log10) ((6R,S)-folinic acid [2])
GCACCA	2.04 ± 0.022	2 ± 0.039
GCACCG	2.055 ± 0.0053	2.05 ± 0.061
UCAAGU	1.984 ± 0.0097	2.02 ± 0.045
UCAAGG	1.96 ± 0.023	2 ± 0.033
CAUUAA	1.953 ± 0.0081	1.976 ± 0.014
CAUUAG	1.94 ± 0.037	1.985 ± 0.0055
ACACAG	1.953 ± 0.0027	2.01 ± 0.048
ACACAA	1.968 ± 0.019	1.98 ± 0.045
ACACAC	2.019 ± 0.0045	2.01 ± 0.058
CCAACA	2.033 ± 0.011	2 ± 0.047
CCAACC	2.027 ± 0.016	1.99 ± 0.042
CCAACU	2.049 ± 0.0064	2.053 ± 0.02
CCAACG	2.0184 ± 0.002	2.01 ± 0.041
UAUUAU	1.931 ± 0.012	1.985 ± 0.01
GAUUCC	2.064 ± 0.0098	2.043 ± 0.019
GAUUCG	1.978 ± 0.0021	2.01 ± 0.042
CCACCA	2.044 ± 0.012	2.01 ± 0.041
CCACCG	2.007 ± 0.018	2.01 ± 0.054
CCACCC	2.038 ± 0.011	1.994 ± 0.014
CCACCU	2.101 ± 0.015	2.07 ± 0.033

Variant	normalized RNA/DNA level without ligand (log10) ((6R,S)-folinic acid [1])	normalized RNA/DNA level with ligand (log10) ((6R,S)-folinic acid [2])
AAUUGC	2.006 ± 0.0074	2.01 ± 0.039
AAUUCA	1.9759 ± 0.00044	2 ± 0.041
AAUUCC	2.059 ± 0.018	2.036 ± 0.019
AAUUCG	1.974 ± 0.012	2.03 ± 0.038
AAUUCU	2.0312 ± 0.0016	2.03 ± 0.027
GCAAUC	2.03 ± 0.02	2.03 ± 0.038
GCAAUU	2.039 ± 0.01	2.04 ± 0.042
GCAAUG	1.98 ± 0.0061	2.033 ± 0.0084
GCAAUA	2.014 ± 0.013	2.03 ± 0.026
UCACAU	1.986 ± 0.0076	2.02 ± 0.048
UCACAG	1.9 ± 0.0082	1.979 ± 0.012
UCACAA	1.982 ± 0.017	1.98 ± 0.025
UCACAC	2.048 ± 0.015	2.023 ± 0.016
UCAAUA	1.9534 ± 0.0012	1.98 ± 0.031
UCAAUC	2.074 ± 0.0092	2.06 ± 0.048
UCAAUU	2.013 ± 0.011	2.02 ± 0.014
ACAAGA	1.974 ± 0.0046	2.02 ± 0.031
ACAAGC	2.033 ± 0.01	2.02 ± 0.04
ACAAGU	2.022 ± 0.0081	2.02 ± 0.028
GCACAG	1.936 ± 0.0048	2 ± 0.024

Variant	normalized RNA/DNA level without ligand (log10) ((6R,S)-folinic acid [1])	normalized RNA/DNA level with ligand (log10) ((6R,S)-folinic acid [2])
GCACAU	1.991 ± 0.0072	2.01 ± 0.025
CCAAAG	1.899 ± 0.0025	1.99 ± 0.025
CCAAAC	2.017 ± 0.015	2.03 ± 0.044
CCAAAU	1.963 ± 0.013	2 ± 0.035
GAUUUC	2.055 ± 0.017	2 ± 0.03
GAUUUU	2.011 ± 0.0062	2.026 ± 0.0072
GAUUUG	1.95 ± 0.023	2.03 ± 0.047
UCAACA	1.987 ± 0.0049	2.017 ± 0.018
UCAACG	1.909 ± 0.0028	2 ± 0.034
UCACCC	2.05 ± 0.025	2.04 ± 0.037
UCACCU	2.051 ± 0.0042	2.06 ± 0.027
UCACCA	2.0085 ± 0.0017	2.006 ± 0.0035
CCAAUC	2.028 ± 0.018	1.99 ± 0.049
CCAAUA	1.994 ± 0.0075	2 ± 0.036
CCAAUG	1.998 ± 0.0065	2.022 ± 0.019
CCAAUU	2.039 ± 0.0021	2.05 ± 0.037
AAUUUA	1.966 ± 0.012	1.99 ± 0.02
AAUUUC	2.031 ± 0.0025	2.01 ± 0.049
